# In patent US7517850B2, “Calcium phosphate nanoclusters and their applications” (priority 1999, dated 2009):
# Like-named read-outs stand apart in the source and are kept apart here. Ends that are not written are not given here.
# B1: β-casein 5p: β-casein phosphoprotein with 5 phosphorylated residues, item 3 (protein, UniProt P02666 16-224, looked up)
# Beta-casein: RELEELNVPGEIVESLSSSEESITRINKKIEKFQSEEQQQTEDELQDKIHPFAQTQSLVYPFPGPIPNSLPQNIPPLTQTPVVVPPFLQPEVMGVSKVKEAMAPKHKEMPFPKYPVEPFTESQSLTLTDVENLHLPLPLLQSWMHQPHQPLPPTVMFPPQSVLSLSQSKVLPVPQKAVPYPQRDMPIQAFLLYQEPVLGPVRGPFPIIV
# modifications: 5 phosphorylations
# notes: β-casein phosphoprotein with 5 phosphorylated residues, item 3
# How the values were obtained:
# [1] = Confirmation of nanocluster formation by small angle X-ray or neutron scattering; type: physicochemical
# Excerpt: The formation of nanoclusters, nanocluster-like particles or larger particles composed of assemblies of nanoclusters has been established by small angle X-ray or neutron scattering experiments, as described by Holt et al. (1996, 1998).
# [2] = Test for nanocluster formation (absence of precipitation); type: physicochemical; conditions: standard conditions for β-casein phosphopeptide nanoclusters modified to the smallest extent; absence of precipitation = nanocluster-like particles
# Excerpt: Nanocluster formation was investigated with the following phosphoproteins, phosphoprotein mixtures, phosphopeptides and phosphopeptide mixtures: • 1. Whole casein • 2. Mixtures of β- and κ-caseins • 3. β-casein 5P • 4. A commercial phosphopeptide mixture supplied by MD foods and derived from casein, containing a large number of phosphopeptides as described by Ellegard et al. (1999). • 5. A phosphopeptide mixture derived from a digestion of whole casein with protease XIV from Streptomyces griseus, and papain type IV containing αs1-casein 2P (f46-51), αs1-casein 4P (f61-70), β-casein 4P (f11-21), αs2-casein 3P (f5-12), αs2-casein 4P (f49-61) and αs2-casein 2P (f126-133). • 6. β-casein phosphopeptides 4P (f1-25) or 4P (f2-25) or 5P (f1-42) • 7. Cyanogen bromide cleavage fragments αs1-casein 2P (f1-54) or αs1-casein 6P (f61-123). • […]. Tryptic phosphopeptides αs1-casein 1P (f104-119) or αs1-casein 2P (f43-58) or αs1-casein 5P (f59-79) or αs1-casein 7P (f43-79)
# A test for nanocluster formation was applied in which the standard conditions for the formation of nanoclusters from the β-casein phosphopeptide were modified to the smallest extent possible and applied to the other peptides or peptide mixtures. […] Nanoclusters were found with each of the 6 phosphopeptides and confirmed experimentally by X-ray scattering measurements.
# [3] = small angle X-ray or neutron scattering; Holt et al., 1996, 1998; cited from earlier work
Molecule,Conclusion (nanocluster formation) [1],outcome of test for nanocluster formation [2],Conclusion (nanocluster formation) [3]
"αs1-casein 5P (f59-79): tryptic phosphopeptide of αs1-casein, item 8 (QMEAESISSSEEIVPNSVEQK; also: 5 phosphorylations, sites not given here; UniProt P02662 74-94, looked up, fragment)",Clear solution of stable nanoclusters in the normal,Nanoclusters were formed,–
"αs1-casein 1P (f104-119): tryptic phosphopeptide of αs1-casein, item 8 (YKVPQLEIVPNSAEER; also: 1 phosphorylation, site not given here; UniProt P02662 119-134, looked up, fragment)",Precipitation of calcium phosphate,No stable nanocluster solution was formed,–
"αs1-casein 2P (f1-54): cyanogen bromide cleavage fragment of αs1-casein, item 7 (RPKHPIKHQGLPQEVLNENLLRFFVAPFPEVFGKEKVNELSKDIGSESTEDQAM; also: 2 phosphorylations, sites not given here; UniProt P02662 16-69, looked up, fragment)",–,failed to dissolve,–
"β-casein phosphopeptide 4P (f2-25): β-casein phosphopeptide residues 2-25 with 4 phosphorylated residues, item 6 (ELEELNVPGEIVESLSSSEESITR; also: 4 phosphorylations, sites not given here; UniProt P02666 17-40, looked up, fragment)",Monodisperse nanoclusters formed,–,–
"αs1-casein 7P (f43-79): tryptic phosphopeptide of αs1-casein, item 8 (DIGSESTEDQAMEDIKQMEAESISSSEEIVPNSVEQK; also: 7 phosphorylations, sites not given here; UniProt P02662 58-94, looked up, fragment)",Clear solution of stable nanoclusters in the normal,Nanoclusters were formed,–
"β-casein phosphopeptide 4P (f1-25): β-casein phosphopeptide residues 1-25 with 4 phosphorylated residues, item 6 (RELEELNVPGEIVESLSSSEESITR; also: 4 phosphorylations, sites not given here; UniProt P02666 16-40, looked up, fragment)",–,–,"Monodisperse nanoclusters formed (Holt et al., 1996,"
"β-casein phosphopeptide 5P (f1-42): β-casein phosphopeptide residues 1-42 with 5 phosphorylated residues, item 6 (RELEELNVPGEIVESLSSSEESITRINKKIEKFQSEEQQQTE; also: 5 phosphorylations, sites not given here; UniProt P02666 16-57, looked up, fragment)",–,–,"Monodisperse nanoclusters formed (Holt et al., 1996,"
"αs1-casein 2P (f43-58): tryptic phosphopeptide of αs1-casein, item 8 (DIGSESTEDQAMEDIK; also: 2 phosphorylations, sites not given here; UniProt P02662 58-73, looked up, fragment)",Precipitation of calcium phosphate,No stable nanocluster solution was formed,–
B1,Uncontrolled precipitation of the β-casein aggregates,underwent an unlimited aggregation,–
